B1: Myocilin, Q99972 (parent)
chain: MRFFCARCCSFGPEMPAVQLLLLACLVWDVGARTAQLRKANDQSGRCQYTFSVASPNESSCPEQSQAMSVIHNLQRDSSTQRLDLEATKARLSSLESLLHQLTLDQAARPQETQEGLQRELGTLRRERDQLETQTRELETAYSNLLRDKSVLEEEKKRLRQENENLARRLESSSQEVARLRRGQCPQTRDTARAVPPGSREVSTWNLDTLAFQELKSELTEVPASRILKESPSGYLRSGEGDTGCGELVWVGEPLTLRTAETITGKYGVWMRDPKPTYPYTQETTWRIDTVGTDVRQVFEYDLISQFMQGYPSKVHILPRPLESTGAVVYSGSLYFQGAESRTVIRYELNTETVKAEKEIPGAGYHGQFPYSWGGYTDIDLAVDEAGLWVIYSTDEAKGAIVLSKLNPENLELEQTWETNIRKQSVANAFIICGTLYTVSSYTSADATVNFAYDTGTGISKTLTIPFKNRYKYSSMIDYNPLEKKLFAWDNLNMVTYDIKLSKM

In this data set the parent is B1. The note with it: Homo sapiens, pH 6, Thermal, CD, Sodium acetate 10mM, reversible: no, structure 4WXQ, whole UniProt chain shown.

For the variant K423E, under “CaCl2 1mM”, the Tm worked out at 34.2 °C and the “change of melting temperature, mutant - wild type (higher = more stable)” value (“change of melting temperature, mutant” below) was -18.8 °C. For the same variant, where the note is “CaCl2 10mM”, the Tm turned out to be 43.2 °C and the “change of melting temperature, mutant” value was -16.4 °C.

As to D384A, where the note is “CaCl2 1mM”, the Tm turned out to be 42.5 °C and the “change of melting temperature, mutant” value is -10.5 °C.

In the case of G252R, where the note is “CaCl2 1mM”, the Tm came out at 43 °C and the “change of melting temperature, mutant” value is -10 °C. Besides, where the note is “CaCl2 10mM”, the Tm is 51.5 °C and the “change of melting temperature, mutant” value was -8.1 °C.

With V426F, for the setting “CaCl2 1mM”, the Tm was 41.5 °C and the “change of melting temperature, mutant” value is -11.5 °C. For the same variant, where the note is “CaCl2 10mM”, the Tm is 49.9 °C and the “change of melting temperature, mutant” value was -9.7 °C.

As to P481L, where the note is “CaCl2 1mM”, the Tm amounted to 45.5 °C and the “change of melting temperature, mutant” value is -7.5 °C. Besides, for the setting “CaCl2 10mM”, the Tm was 51.2 °C and the “change of melting temperature, mutant” value was -8.4 °C.

Turning to I477S, the Tm by setting is: (CaCl2 1mM) 39.7 °C; (CaCl2 10mM) 48.2 °C. In addition, the “change of melting temperature, mutant” value (CaCl2 1mM) was -13.3 °C and the “change of melting temperature, mutant” value (CaCl2 10mM) is -11.4 °C.

With I477N, for the setting “CaCl2 1mM”, the Tm amounted to 37.7 °C and the “change of melting temperature, mutant” value is -15.3 °C.

D273A: where the note is “CaCl2 1mM”, the Tm worked out at 21.7 °C and the “change of melting temperature, mutant” value is -31.3 °C. Also, for the setting “CaCl2 10mM”, the Tm was 21.1 °C and the “change of melting temperature, mutant” value is -38.5 °C.

With G246R, for the setting “CaCl2 1mM”, the Tm was 42.5 °C and the “change of melting temperature, mutant” value is -10.5 °C. Further, for the setting “CaCl2 10mM”, the melting temperature (Tm) came out at 50.6 °C and the “change of melting temperature, mutant” value is -9 °C.

On to G364V, for which, where the note is “CaCl2 1mM”, the Tm came to 45 °C and the “change of melting temperature, mutant” value was -8 °C. Further, where the note is “CaCl2 10mM”, the Tm turned out to be 51.9 °C and the “change of melting temperature, mutant” value is -7.7 °C.

For the variant A427T, under “CaCl2 1mM”, the melting temperature (Tm) amounted to 48.3 °C and the “change of melting temperature, mutant” value was -4.7 °C. Under “CaCl2 10mM”, the Tm is 55.2 °C and the “change of melting temperature, mutant” value is -4.4 °C.

For N480K, under “CaCl2 1mM”, the Tm amounted to 42.4 °C and the “change of melting temperature, mutant” value was -10.6 °C. Further, under “CaCl2 10mM”, the Tm amounted to 48.1 °C and the “change of melting temperature, mutant” value is -11.5 °C.

Regarding E385A, under “CaCl2 1mM”, the Tm was 39.7 °C and the “change of melting temperature, mutant” value is -13.3 °C. Besides, where the note is “CaCl2 10mM”, the Tm is 49.7 °C and the “change of melting temperature, mutant” value was -9.9 °C.

Take T377M: under “CaCl2 1mM”, the Tm came to 44.3 °C and the “change of melting temperature, mutant” value was -8.7 °C. Under “CaCl2 10mM”, the Tm stood at 50.6 °C and the “change of melting temperature, mutant” value is -9 °C.

As for E323K, for the setting “CaCl2 1mM”, the Tm stood at 44 °C and the “change of melting temperature, mutant” value is -9 °C. Moreover, for the setting “CaCl2 10mM”, the Tm amounted to 50.3 °C and the “change of melting temperature, mutant” value is -9.3 °C.

With Y437H, the melting temperature (Tm) (CaCl2 1mM) was 40.3 °C and the Tm (CaCl2 10mM) worked out at 48.6 °C. In addition, the “change of melting temperature, mutant” value reads like this: (CaCl2 1mM) -12.7 °C; (CaCl2 10mM) -11 °C.

On to G367R, for which, for the setting “CaCl2 1mM”, the midpoint of thermal melting (Tm) stood at 42.7 °C and the “change of melting temperature, mutant” value was -10.3 °C. For the same variant, where the note is “CaCl2 10mM”, the Tm came to 50.9 °C and the “change of melting temperature, mutant” value was -8.7 °C.

Consider R272G, for which, where the note is “CaCl2 1mM”, the melting temperature (Tm) amounted to 41 °C and the “change of melting temperature, mutant” value is -12 °C. In addition, for the setting “CaCl2 10mM”, the Tm is 48.6 °C and the “change of melting temperature, mutant” value is -11 °C.

For the variant S502P, the Tm is, setting by setting: (CaCl2 1mM) 41 °C; (CaCl2 10mM) 49.9 °C. For the same variant, the “change of melting temperature, mutant” value reads like this: (CaCl2 1mM) -12 °C; (CaCl2 10mM) -9.7 °C.

As to C433R, under “CaCl2 1mM”, the Tm came out at 40.4 °C and the “change of melting temperature, mutant” value was -12.6 °C. For the same variant, under “CaCl2 10mM”, the Tm worked out at 49.4 °C and the “change of melting temperature, mutant” value was -10.2 °C.

Regarding I499F, where the note is “CaCl2 1mM”, the Tm came to 42.8 °C and the “change of melting temperature, mutant” value is -10.2 °C. Where the note is “CaCl2 10mM”, the Tm amounted to 50.4 °C and the “change of melting temperature, mutant” value was -9.2 °C.

On to D380A, for which the Tm is, setting by setting: (CaCl2 1mM) 46.6 °C; (CaCl2 10mM) 45.1 °C. Also, the “change of melting temperature, mutant” value is -6.4 °C (CaCl2 1mM) and -14.5 °C (CaCl2 10mM).

The record behind these values is FireProtDB (doi:10.1074/jbc.m112.408906).
